Numbering of substitutions follows the chain as printed.
Tests used:
vimentin [1] = target: T1, vimentin (UniProt P08670 2-466, limits assumed); assay: fluorescence polarization microscopy of cells expressing the fusion protein
T1 construct: whole, on cells; Endogenous intracellular intermediate filament; also called vimentin fibers; intracellular vimentin
Text: (§1) An expression vector in which DNA encoding the fusion protein designed was placed under an appropriate promoter was introduced by a lipofection method (Avalanche-Everyday Transfection Reagent), thereby allowing HeLa cells to express the above fusion protein. The cells expressing the fusion protein were observed by fluorescence polarization microscopy.
(§2) The orientation of polarization was different from that in the previous cp-sfGFP. The cp-sfGFP of Example 5 and the cp176-172mVenus used in this example were basically the same type of fluorescent proteins but different in the position of cp.

vimentin [2] = target: T1, vimentin; assay: fluorescence polarization microscopy of HeLa cells expressing the fusion protein
Text: as §1, §2

[3] = target: T2, Affimer that binds to actin with ALFA-tag introduced (SEQ ID No: 41); assay: fluorescence polarization microscopy of HeLaM cells expressing the ALFA-tagged Affimer, detected with the anti-ALFA-tag Nanobody-cp176-172mVenus fusion
T2 construct: Expressed in HeLaM cells; also called fusion protein of Affimer and an ALFA-tag; Affimer with ALFA-tag introduced
T2 chain: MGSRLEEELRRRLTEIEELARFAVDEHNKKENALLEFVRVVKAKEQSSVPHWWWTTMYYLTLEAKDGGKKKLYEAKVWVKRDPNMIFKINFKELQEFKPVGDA
Text: Specifically, an ALFA-tag (SEQ ID No: 40) was introduced into an Affimer (SEQ ID No: 2) that binds to F-actin as a model system for verifying the above detection system, to obtain a fusion protein having the amino acid sequence set forth in SEQ ID No: 41. This fusion protein was expressed in HeLaM cells. A fusion protein of an anti-ALFA-tag Nanobody (SEQ ID No: 42) and cp176-172mVenus (SEQ ID No: 43) were brought into contact, and fluorescence polarization was observed. The fusion protein of anti-ALFA-tagged Nanobody and cp176-172mVenus was a fusion protein suitable for observation of fluorescence polarization, in which the Nanobody and the cp176-172mVenus were tightly linked (c.f. Example 5).

T1 sequence (P08670 2-466 limits assumed): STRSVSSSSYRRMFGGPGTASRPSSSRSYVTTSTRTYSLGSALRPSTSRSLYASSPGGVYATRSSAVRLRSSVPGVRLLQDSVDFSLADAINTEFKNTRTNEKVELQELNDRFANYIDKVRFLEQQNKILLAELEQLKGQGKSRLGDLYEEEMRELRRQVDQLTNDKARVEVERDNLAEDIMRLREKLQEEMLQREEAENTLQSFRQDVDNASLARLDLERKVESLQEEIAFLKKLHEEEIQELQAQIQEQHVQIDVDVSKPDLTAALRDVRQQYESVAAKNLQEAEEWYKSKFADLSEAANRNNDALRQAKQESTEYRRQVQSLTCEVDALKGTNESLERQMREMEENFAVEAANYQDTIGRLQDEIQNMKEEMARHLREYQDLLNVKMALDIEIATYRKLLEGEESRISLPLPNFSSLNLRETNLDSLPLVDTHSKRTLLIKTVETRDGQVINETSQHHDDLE

B1: fusion protein of Nanobody that binds to vimentin and cpmTurquoise2 (SEQ ID No: 25) (VHH)
VHH: QVQLVESGGGLVQSGGSLTLTCAASGFTFSAASMRWVRQVPGKGLEWVATIDGTGANSYYSESAKGRFTISRDNARNTLRLQMNNLKPDDTAVYYCANFGRNYWGKGTQVTVVV
**Q.** Does B1 bind (vimentin [1])?
**A.** binds

B2: fusion protein of vimentin-binding Nanobody and mApple (SEQ ID No: 19) (VHH)
VHH: B1 VHH with V113M, V114A
notes: Expressed inside HeLa cells; also called fusion protein of mApple and Nanobody
**Q.** Does B2 bind (vimentin [2])?
**A.** binds

B3: fusion protein of vimentin-binding Nanobody and cp-sfGFP (SEQ ID No: 17) (VHH)
VHH: B1 VHH
notes: Expressed inside HeLa cells; beta-sheet to beta-sheet linkage; also called fusion protein of cp-sfGFP and Nanobody
**Q.** Does B3 bind (vimentin [2])?
**A.** binds

B4: fusion protein of Nanobody that binds to vimentin and cp176-172mVenus (SEQ ID No: 31) (VHH)
VHH: B1 VHH
notes: Expressed inside HeLa cells
**Q.** Does B4 bind (vimentin [2])?
**A.** binds

B5: fusion protein of Nanobody that binds to vimentin and cpmVenus (SEQ ID No: 26) (VHH)
VHH: B1 VHH
**Q.** Does B5 bind (vimentin [1])?
**A.** binds

B6: fusion protein of anti-ALFA-tag Nanobody and cp176-172mVenus (SEQ ID No: 43) (VHH)
VHH: EVQLQESGGGLVQPGGSLRLSCTASGVTISALNAMAMGWYRQAPGERRVMVAAVSERGNAMYRESVQGRFTVTRDFTNKMVSLQMDNLKPEDTAVYYCHVLEDRVDSFHDYWGQGTQVTVVQ
**Q.** Does B6 bind [3]?
**A.** binds

Source: US20220155309A1 (NATIONAL UNIVERSITY CORPORATION TOKYO MEDICAL AND DENTAL …, published 2022)
